From patent publication US20260201008A1, “SECRETIN-DERIVED GLP1R SELECTIVE AGONISTS” (GUBRA A/S, priority 2023, published 2026)
Blank lines part the entries; values can stand above or below the binder they belong to. Numbered stars: 1 amine (or outer) side, 2 acyl side, 3 side chain; on linkers, the order of the positions; unused ones are H or OH. Square brackets hold non-standard residues; d marks the D form. Side chains are listed from the residue outwards. Ends that are not written are not given here. * marks the point of attachment. C20 diacid = O=C(O)CCCCCCCCCCCCCCCCCCC(=O)*; γGlu = O=C(O)[C@H](CCC(=O)[*:2])N[*:1]; AEEA = NCCOCCOCC(=O)O; Aib = CC(C)(N)C(=O)O

Assays:
[1] = target: human GLP-1 receptor (hGLP1R) (human, UniProt P43220 24-463); assay: cell-based or functional assay
[2] = target: human secretin receptor (hSCTR) (human, UniProt P47872 23-440); assay: cell-based or functional assay
human secretin receptor (hSCTR), sequence (P47872 23-440): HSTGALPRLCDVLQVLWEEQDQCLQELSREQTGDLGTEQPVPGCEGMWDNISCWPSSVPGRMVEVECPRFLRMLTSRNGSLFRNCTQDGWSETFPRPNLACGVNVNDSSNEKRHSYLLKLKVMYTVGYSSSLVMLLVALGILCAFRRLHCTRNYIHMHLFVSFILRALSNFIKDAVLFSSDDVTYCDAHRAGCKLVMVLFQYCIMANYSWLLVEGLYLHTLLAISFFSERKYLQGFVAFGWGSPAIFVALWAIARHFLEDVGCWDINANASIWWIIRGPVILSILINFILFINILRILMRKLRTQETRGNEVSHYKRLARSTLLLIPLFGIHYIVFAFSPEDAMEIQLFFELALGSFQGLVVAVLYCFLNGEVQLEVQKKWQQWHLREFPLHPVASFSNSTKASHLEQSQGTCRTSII

B2: SEQ ID NO: 32 (peptide)
peptide: H[Aib]EGTFTSDVSTLK([AEEA-AEEA-γGlu-C20 diacid])E[Aib]AA[Aib]QRFLEHLV-NH2
pEC50 hGLPR1 [1]: 10.6 -log M | pEC50 hSCTR [2]: 6.2 -log M

B4: SEQ ID NO: 31 (peptide)
peptide: H[Aib]EGTFTSDVSELK([AEEA-AEEA-γGlu-C20 diacid])EFAAEQRFLEHLV-NH2
pEC50 hGLPR1 [1]: 10.4 -log M | pEC50 hSCTR [2]: 5.2 -log M

B5: SEQ ID NO: 23 (peptide)
peptide: H[Aib]EGTFTSDVSRLK([AEEA-AEEA-γGlu-C20 diacid])ETAAAQRFLEHLV-NH2
pEC50 hGLPR1 [1]: 10.7 -log M | pEC50 hSCTR [2]: 6.8 -log M

B6: SEQ ID NO: 25 (peptide)
peptide: H[Aib]EGTFTSDVSFLK([AEEA-AEEA-γGlu-C20 diacid])ETAA[Aib]QRFLEHLV-NH2
pEC50 hGLPR1 [1]: 9 -log M | pEC50 hSCTR [2]: 5.1 -log M

B7: SEQ ID NO: 22 (peptide)
peptide: H[Aib]EGTFTSDVSRLK([AEEA-AEEA-γGlu-C20 diacid])EEAAEQRFLEHLV-NH2
pEC50 hGLPR1 [1]: 10.7 -log M | pEC50 hSCTR [2]: 6.4 -log M

B8: SEQ ID NO: 199 (peptide)
peptide: H[Aib]EGTFTSDYSELLEGAALQRFIQWLV-NH2
modifications: N-terminus assumed
SMILES: CC[C@H](C)[C@H](NC(=O)[C@H](Cc1ccccc1)NC(=O)[C@H](CCCNC(=N)N)NC(=O)[C@H](CCC(N)=O)NC(=O)[C@H](CC(C)C)NC(=O)[C@H](C)NC(=O)[C@H](C)NC(=O)CNC(=O)[C@H](CCC(=O)O)NC(=O)[C@H](CC(C)C)NC(=O)[C@H](CC(C)C)NC(=O)[C@H](CCC(=O)O)NC(=O)[C@H](CO)NC(=O)[C@H](Cc1ccc(O)cc1)NC(=O)[C@H](CC(=O)O)NC(=O)[C@H](CO)NC(=O)[C@@H](NC(=O)[C@H](Cc1ccccc1)NC(=O)[C@@H](NC(=O)CNC(=O)[C@H](CCC(=O)O)NC(=O)C(C)(C)NC(=O)[C@@H](N)Cc1c[nH]cn1)[C@@H](C)O)[C@@H](C)O)C(=O)N[C@@H](CCC(N)=O)C(=O)N[C@@H](Cc1c[nH]c2ccccc12)C(=O)N[C@@H](CC(C)C)C(=O)N[C@H](C(N)=O)C(C)C
pEC50 hGLPR1 [1]: 10.6 -log M | pEC50 hSCTR [2]: 8.3 -log M

B10: SEQ ID NO: 28 (peptide)
peptide: H[Aib]EGTFTSDVSVLK([AEEA-AEEA-γGlu-C20 diacid])EEAAAQRFLEHLV-NH2
pEC50 hGLPR1 [1]: 10.7 -log M | pEC50 hSCTR [2]: 5.9 -log M

B11: SEQ ID NO: 29 (peptide)
peptide: H[Aib]EGTFTSDVSVLK([AEEA-AEEA-γGlu-C20 diacid])EFAAAQRFLEHLV-NH2
pEC50 hGLPR1 [1]: 10 -log M | pEC50 hSCTR [2]: 6.1 -log M

B13: SEQ ID NO: 27 (peptide)
peptide: H[Aib]EGTFTSDVSFLK([AEEA-AEEA-γGlu-C20 diacid])EFAA[Aib]QRFLEHLV-NH2
pEC50 hGLPR1 [1]: 10 -log M | pEC50 hSCTR [2]: 5.5 -log M

B14: SEQ ID NO: 21 (peptide)
peptide: H[Aib]EGTFTSDVSRLK([AEEA-AEEA-γGlu-C20 diacid])ETAAQQRFLEHLV-NH2
pEC50 hGLPR1 [1]: 10.9 -log M | pEC50 hSCTR [2]: 6.7 -log M

B17: SEQ ID NO: 200 (peptide)
peptide: H[Aib]EGTFTSDYSWLLEGAALQRFIQWLV-NH2
modifications: N-terminus assumed
SMILES: CC[C@H](C)[C@H](NC(=O)[C@H](Cc1ccccc1)NC(=O)[C@H](CCCNC(=N)N)NC(=O)[C@H](CCC(N)=O)NC(=O)[C@H](CC(C)C)NC(=O)[C@H](C)NC(=O)[C@H](C)NC(=O)CNC(=O)[C@H](CCC(=O)O)NC(=O)[C@H](CC(C)C)NC(=O)[C@H](CC(C)C)NC(=O)[C@H](Cc1c[nH]c2ccccc12)NC(=O)[C@H](CO)NC(=O)[C@H](Cc1ccc(O)cc1)NC(=O)[C@H](CC(=O)O)NC(=O)[C@H](CO)NC(=O)[C@@H](NC(=O)[C@H](Cc1ccccc1)NC(=O)[C@@H](NC(=O)CNC(=O)[C@H](CCC(=O)O)NC(=O)C(C)(C)NC(=O)[C@@H](N)Cc1c[nH]cn1)[C@@H](C)O)[C@@H](C)O)C(=O)N[C@@H](CCC(N)=O)C(=O)N[C@@H](Cc1c[nH]c2ccccc12)C(=O)N[C@@H](CC(C)C)C(=O)N[C@H](C(N)=O)C(C)C
pEC50 hGLPR1 [1]: 10.7 -log M | pEC50 hSCTR [2]: 8.1 -log M

The remaining lines, values ahead:

pEC50 hGLPR1 [1]: 10.8 -log M | pEC50 hSCTR [2]: 7.1 -log M
B1: SEQ ID NO: 3 (peptide)
peptide: H[Aib]EGTFTSDVSRLK([AEEA-AEEA-γGlu-C20 diacid])ELAAQQRFLEHLV-NH2

pEC50 hGLPR1 [1]: 10.9 -log M | pEC50 hSCTR [2]: 7.9 -log M
B3: SEQ ID NO: 201 (peptide)
peptide: H[Aib]EGTFTSDYSYLLEGAALQRFIQWLV-NH2
modifications: N-terminus assumed
SMILES: CC[C@H](C)[C@H](NC(=O)[C@H](Cc1ccccc1)NC(=O)[C@H](CCCNC(=N)N)NC(=O)[C@H](CCC(N)=O)NC(=O)[C@H](CC(C)C)NC(=O)[C@H](C)NC(=O)[C@H](C)NC(=O)CNC(=O)[C@H](CCC(=O)O)NC(=O)[C@H](CC(C)C)NC(=O)[C@H](CC(C)C)NC(=O)[C@H](Cc1ccc(O)cc1)NC(=O)[C@H](CO)NC(=O)[C@H](Cc1ccc(O)cc1)NC(=O)[C@H](CC(=O)O)NC(=O)[C@H](CO)NC(=O)[C@@H](NC(=O)[C@H](Cc1ccccc1)NC(=O)[C@@H](NC(=O)CNC(=O)[C@H](CCC(=O)O)NC(=O)C(C)(C)NC(=O)[C@@H](N)Cc1c[nH]cn1)[C@@H](C)O)[C@@H](C)O)C(=O)N[C@@H](CCC(N)=O)C(=O)N[C@@H](Cc1c[nH]c2ccccc12)C(=O)N[C@@H](CC(C)C)C(=O)N[C@H](C(N)=O)C(C)C

pEC50 hGLPR1 [1]: 10.9 -log M | pEC50 hSCTR [2]: 7.2 -log M
B9: SEQ ID NO: 26 (peptide)
peptide: H[Aib]EGTFTSDVSRLK([AEEA-AEEA-γGlu-C20 diacid])ETAATQRFLEHLV-NH2

pEC50 hGLPR1 [1]: 10.3 -log M | pEC50 hSCTR [2]: 6.8 -log M
B12: SEQ ID NO: 24 (peptide)
peptide: H[Aib]EGTFTSDVSRLK([AEEA-AEEA-γGlu-C20 diacid])EFAAQQRFLEHLV-NH2

pEC50 hGLPR1 [1]: 10.4 -log M | pEC50 hSCTR [2]: 7.4 -log M
B15: SEQ ID NO: 202 (peptide)
peptide: H[Aib]EGTFTSDYSFLLEGAALQRFIQWLV-NH2
modifications: N-terminus assumed
SMILES: CC[C@H](C)[C@H](NC(=O)[C@H](Cc1ccccc1)NC(=O)[C@H](CCCNC(=N)N)NC(=O)[C@H](CCC(N)=O)NC(=O)[C@H](CC(C)C)NC(=O)[C@H](C)NC(=O)[C@H](C)NC(=O)CNC(=O)[C@H](CCC(=O)O)NC(=O)[C@H](CC(C)C)NC(=O)[C@H](CC(C)C)NC(=O)[C@H](Cc1ccccc1)NC(=O)[C@H](CO)NC(=O)[C@H](Cc1ccc(O)cc1)NC(=O)[C@H](CC(=O)O)NC(=O)[C@H](CO)NC(=O)[C@@H](NC(=O)[C@H](Cc1ccccc1)NC(=O)[C@@H](NC(=O)CNC(=O)[C@H](CCC(=O)O)NC(=O)C(C)(C)NC(=O)[C@@H](N)Cc1c[nH]cn1)[C@@H](C)O)[C@@H](C)O)C(=O)N[C@@H](CCC(N)=O)C(=O)N[C@@H](Cc1c[nH]c2ccccc12)C(=O)N[C@@H](CC(C)C)C(=O)N[C@H](C(N)=O)C(C)C

pEC50 hGLPR1 [1]: 10.9 -log M | pEC50 hSCTR [2]: 6.6 -log M
B16: SEQ ID NO: 30 (peptide)
peptide: H[Aib]EGTFTSDVSYLK([AEEA-AEEA-γGlu-C20 diacid])EEAATQRFLEHLV-NH2
